Data published in PMC1807967.
Read-outs that look alike come from different tables or passages of the source.

B1: 20 bp dsDNA (dsDNA)
DNA 1: ATGTGAATCAGTATGGTTTC
DNA 2: GAAACCATACTGATTCACAT

Key:
Assay in all cases: EMSA
ttMutS2 [1] = target: T1, ttMutS2 (Thermus thermophilus, UniProt Q5SHT5 1-744)
T1 sequence: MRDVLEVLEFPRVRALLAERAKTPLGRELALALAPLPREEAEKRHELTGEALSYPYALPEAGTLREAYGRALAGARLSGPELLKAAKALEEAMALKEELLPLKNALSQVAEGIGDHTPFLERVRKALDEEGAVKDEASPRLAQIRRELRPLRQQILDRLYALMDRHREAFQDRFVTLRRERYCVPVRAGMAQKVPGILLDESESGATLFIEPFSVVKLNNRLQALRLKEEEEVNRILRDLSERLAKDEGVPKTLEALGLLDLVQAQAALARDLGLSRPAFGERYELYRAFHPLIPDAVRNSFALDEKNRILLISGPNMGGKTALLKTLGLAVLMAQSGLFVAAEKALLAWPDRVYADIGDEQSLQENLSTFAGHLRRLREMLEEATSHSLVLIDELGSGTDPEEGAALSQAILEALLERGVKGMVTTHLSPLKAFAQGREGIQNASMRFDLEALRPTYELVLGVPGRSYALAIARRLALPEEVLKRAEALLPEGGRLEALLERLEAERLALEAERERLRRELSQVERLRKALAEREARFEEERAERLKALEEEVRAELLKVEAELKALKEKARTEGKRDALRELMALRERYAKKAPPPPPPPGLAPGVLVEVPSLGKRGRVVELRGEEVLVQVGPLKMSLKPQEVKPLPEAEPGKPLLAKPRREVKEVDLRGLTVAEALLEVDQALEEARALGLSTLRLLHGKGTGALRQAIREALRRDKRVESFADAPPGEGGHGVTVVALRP

[2] = target: T2, N60-ttMutS2 (Smr-deleted) (Thermus thermophilus, UniProt Q5SHT5 1-540)
T2 sequence: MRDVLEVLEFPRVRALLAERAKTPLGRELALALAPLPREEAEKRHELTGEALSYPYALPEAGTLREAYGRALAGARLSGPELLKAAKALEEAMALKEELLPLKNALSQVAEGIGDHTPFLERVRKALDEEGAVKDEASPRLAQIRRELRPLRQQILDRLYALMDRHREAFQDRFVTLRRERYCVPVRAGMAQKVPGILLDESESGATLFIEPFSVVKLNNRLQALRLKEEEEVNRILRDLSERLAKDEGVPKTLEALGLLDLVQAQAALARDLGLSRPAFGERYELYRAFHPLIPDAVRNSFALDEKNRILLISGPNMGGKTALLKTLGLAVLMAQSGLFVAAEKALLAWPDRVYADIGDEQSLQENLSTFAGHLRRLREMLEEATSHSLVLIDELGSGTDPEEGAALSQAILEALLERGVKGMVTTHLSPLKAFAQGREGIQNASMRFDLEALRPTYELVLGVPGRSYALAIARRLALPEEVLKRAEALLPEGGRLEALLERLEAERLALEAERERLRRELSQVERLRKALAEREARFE

ttSmr = target: T3, ttSmr (Thermus thermophilus, UniProt Q5SHT5 621-744)
T3 sequence: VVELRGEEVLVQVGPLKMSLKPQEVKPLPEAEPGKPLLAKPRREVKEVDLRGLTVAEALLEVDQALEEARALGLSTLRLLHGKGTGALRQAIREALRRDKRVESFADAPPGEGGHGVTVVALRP

[3] = target: T2, N60-ttMutS2 (Smr-deleted); remark: listed apart in the source
ttMutS2 [4] = target: T1, ttMutS2; remark: listed apart in the source

Binder	binding result (ttMutS2 [1])	binding result [2]	binding result (ttSmr)	binding result [3]	binding result (ttMutS2 [4])
B1	binds	binds			
ATGTGAATCAGTATGGTTTC (ssDNA) [20mer ssDNA]			binds	no binding	no binding
